Test results as given in patent US10772928B2, “Modulation and detection of a neuronal alternative splicing regulatory network for treatment and diagnosis of neurological disorders” (The Governing Council of the University of Toronto, priority 2014, dated 2020).
Blank lines part the entries; values can stand above or below the molecule they belong to.

Tests used:
nSR100 [1] = target: T1, nSR100 (Mus musculus, UniProt Q8BKA3); test: Regulation by nSR100: microexon inclusion level (PSI) by RNA-Seq in mouse N2A cells depleted of nSR100 (Table 2); format: cell-based; details: YES/NO
T1 construct: host or cells: mouse N2A cells
T1 sequence (Q8BKA3 1-608): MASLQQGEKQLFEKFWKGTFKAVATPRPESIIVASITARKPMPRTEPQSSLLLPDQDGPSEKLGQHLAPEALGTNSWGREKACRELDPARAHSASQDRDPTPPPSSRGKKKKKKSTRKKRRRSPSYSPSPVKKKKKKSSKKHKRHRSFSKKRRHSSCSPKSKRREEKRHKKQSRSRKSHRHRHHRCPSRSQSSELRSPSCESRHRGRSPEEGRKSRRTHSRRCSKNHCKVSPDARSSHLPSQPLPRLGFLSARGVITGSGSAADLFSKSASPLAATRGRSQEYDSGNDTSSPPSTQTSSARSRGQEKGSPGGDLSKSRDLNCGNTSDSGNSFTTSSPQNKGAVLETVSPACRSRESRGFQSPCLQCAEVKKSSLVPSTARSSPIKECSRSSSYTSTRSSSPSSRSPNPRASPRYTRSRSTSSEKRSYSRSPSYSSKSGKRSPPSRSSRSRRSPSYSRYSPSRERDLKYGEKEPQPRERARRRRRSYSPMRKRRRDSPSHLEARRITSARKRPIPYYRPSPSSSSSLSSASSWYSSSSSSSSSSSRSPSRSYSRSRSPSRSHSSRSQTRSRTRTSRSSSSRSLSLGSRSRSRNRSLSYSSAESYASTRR
Source text: A-H) Percent of neural-regulated exons within each length class that is affected at 15<|ΔPSI|<25 and |ΔPSI|>25 by (A) RBFOX1 knockdown in human neural precursor cells; (B) MBNL1 and MBNL2 double knockdown in human HeLa cells; (C) ESRP1 knockdown in human PNT2 cells; (D) nSR100/Srrm4 knockdown in mouse N2A cells; (E) Ptbp1 knockdown in mouse N2A cells; (F) Ptbp2 knockout in mouse cortex (P1 stage); (G) Ptbp2 knockout in mouse embryonic brain (18.5 days post-conception); and (H) Rbfox1 knockout. p values correspond to two-sided proportion tests of regulated versus non-regulated events. I) Expression of nSR100 in different isolated brain cell types (Zhang et al., 2014). Error bars indicate SEM. […]
An RNA-Seq analysis pipeline was developed to detect and quantify all AS event classes involving all hypothetically possible splice junctions formed by the usage of annotated and unannotated splice sites, including those that demarcate microexons. […]
A multi-module analysis pipeline was developed that uses RNA-Seq, expressed sequence tag (EST) and cDNA data, as well as gene annotations and evolutionary conservation, to assemble libraries of exon-exon-junctions (EEJs) for subsequent read alignment to detect and quantify AS events in RNA-Seq data. […] Alt3 or Alt5 events were quantified based on the fraction of reads supporting the usage of each alternative splice site. […]

nSR100 [2] = target: T1, nSR100; test: AP-MS nSR100 interaction partners from mouse N2A cells (Table 5); format: binding; details: for AvgP (average of the SAINT scores) / MaxP (maximal SAINT score): bait Srrm4; for FoldChange between the prey Avg spectra of the bait and control purifications: bait Srrm4, 0.1 added to prevent division by 0; for AvgSpec (average number of spectra per replicate): bait Srrm4, 2 replicates; for Spectra (number of spectra for the prey in the purification of the bait): AP-MS; for SpecSum: bait Srrm4, sum of spectra over 2 replicates
Source text: By applying affinity purification coupled to mass-spectrometry (AP-MS), several interaction nSR100 partner proteins were detected that provide insight into mechanisms of post-translational regulation of nSR100 levels.

[3] = bait Srrm4, biological replicate 1 (first number of the cell)
[4] = bait Srrm4, biological replicate 2 (second number of the cell)

AvgP (average of the SAINT scores) (nSR100 [2]): 1
MaxP (maximal SAINT score) (nSR100 [2]): 1
FoldChange between the prey Avg spectra of the bait and control purifications (nSR100 [2]): 90
AvgSpec (average number of spectra per replicate) (nSR100 [2]): 9
Spectra (number of spectra for the prey in the purification of the bait) (nSR100 [2]; [3]): 8
Spectra (number of spectra for the prey in the purification of the bait) (nSR100 [2]; [4]): 10
SpecSum (nSR100 [2]): 18
B1: Fip1l1 (protein, UniProt Q9D824 1-581, looked up)
Pre-mRNA 3'-end-processing …: MSAGEVERLVELSGGTGGDEEEEWLYGGPWDVHVHSDLAKDLDENEVERPEEENASANPPSGIEEEAAENGVAKPKVTETEDDSDSDSDDDEDDVHVTIGDIKTGAPQYGSYGTAPVNLNIKAGGRVYGNTGTKVKGVDLDAPGSINGVPLLEVDLDSFEDKPWRKPGADLSDYFNYGFNEDTWKAYCEKQKRIRMGLEVIPVTSTTNKITVQQGRTGNSEKEAALPSTKAEFTSPPSLFKTGLPPSRNSTSSQSQTSTASRKASSSVGKWQDRYGRAESPDLRRLPGAIDVIGQTITISRVEGRRRANENSNIQVLSDRSATEVDNNFSKPPPFFPPGAPPTHLPPPPFLPPPPTVSTAPPLIPPPGIPITVPPPGFPPPPGAPPPSLIPTIESGHSSGYDSRSARAFPYGNVAFPHLTSSAPSWPSLVDTTKQWDYYARREKDRDRDRERDRDRERERDRDRERERTRERERERDHSPTPSVFNSDEERYRYREYAERGYERHRASREKEERHRERRHREKEETRHKSSRSNSRRRHESEEGDSHRRHKHKKSKRSKEGKEAGSEPVPEQESTEAAPAE
Regulation by nSR100 (nSR100 [1]): NO (regulation may occur but does not meet a miminal threshold change of PSI≥10)

AvgP (average of the SAINT scores) (nSR100 [2]): 0.99
MaxP (maximal SAINT score) (nSR100 [2]): 1
FoldChange between the prey Avg spectra of the bait and control purifications (nSR100 [2]): 7.33
AvgSpec (average number of spectra per replicate) (nSR100 [2]): 11
Spectra (number of spectra for the prey in the purification of the bait) (nSR100 [2]; [3]): 8
Spectra (number of spectra for the prey in the purification of the bait) (nSR100 [2]; [4]): 14
SpecSum (nSR100 [2]): 22
B2: Dhx8 (protein, UniProt A2A4P0 1-1244, looked up)
ATP-dependent RNA helicase …: MAVAVAAAGVLMGSEPGPAEELAKLEYLSLVSKVCTELDNHLGINDKDLAEFVISLAEKNTTFDTFKASLVKNGAEFTDSLISNLLRLIQTMRPPAKPSTSKDPVVKPKTEKEKLRELFPVLCQPDNPSARTMLDEEDVKVAVDVLKELEALMPSAAGQEKQRDPEHRDRTKKKKRSRSRDRDRDRDRDRDRDRDRDRDRDKDRERDRDRERDRERDRERDHKRRHRSRSRSHSRTRERTKGKSRYRSRSRSQSPFKDRKDREKYGERNLDRWRDKHVDRPPPEEPAIGDIYNGKVTSIMQFGCFVQLEGLRKRWEGLVHISELRREGRVANVADVVSKGQRVKVKVLSFTGTKTSLSMKDVDQETGEDLNPNRRRNLVGETNEETSMRNPDRPTHLSLVSAPEVEDDSLERKRLTRISDPEKWEIKQMIAANVLSKEEFPDFDEETGILPKVDDEEDEDLEIELVEEEPPFLRGHTKQSMDMSPIKIVKNPDGSLSQAAMMQSALAKERRELKQAQREAEMDSIPMGLNKHWVDPLPDAEGRQIAANMRGIGMMPNDIPEWKKHAFGGNKASYGKKTQMSILEQRESLPIYKLKEQLVQAVHDNQILIVIGETGSGKTTQITQYLAEAGYTSRGKIGCTQPRRVAAMSVAKRVSEEFGCCLGQEVGYTIRFEDCTSPETVIKYMTDGMLLRECLIDPDLTQYAIIMLDEAHERTIHTDVLFGLLKKTVQKRQDMKLIVTSATLDAVKFSQYFYEAPIFTIPGRTYPVEILYTKEPETDYLDASLITVMQIHLTEPPGDILVFLTGQEEIDTACEILYERMKSLGPDVPELIILPVYSALPSEMQTRIFDPAPPGSRKVVIATNIAETSLTIDGIYYVVDPGFVKQKVYNSKTGIDQLVVTPISQAQAKQRAGRAGRTGPGKCYRLYTERAYRDEMLTTNVPEIQRTNLASTVLSLKAMGINDLLSFDFMDAPPMETLITAMEQLYTLGALDDEGLLTRLGRRMAEFPLEPMLCKMLIMSVHLGCSEEMLTIVSMLSVQNVFYRPKDKQALADQKKAKFHQTEGDHLTLLAVYNSWKNNKFSNPWCYENFIQARSLRRAQDIRKQMLGIMDRHKLDVVSCGKSTVRVQKAICSGFFRNAAKKDPQEGYRTLIDQQVVYIHPSSALFNRQPEWVVYHELVLTTKEYMREVTTIDPRWLVEFAPAFFKVSDPTKLSKQKKQQRLEPLYNRYEEPNAWRISRAFRRR

AvgP (average of the SAINT scores) (nSR100 [2]): 0.99
MaxP (maximal SAINT score) (nSR100 [2]): 1
FoldChange between the prey Avg spectra of the bait and control purifications (nSR100 [2]): 3.82
AvgSpec (average number of spectra per replicate) (nSR100 [2]): 21
Spectra (number of spectra for the prey in the purification of the bait) (nSR100 [2]; [3]): 18
Spectra (number of spectra for the prey in the purification of the bait) (nSR100 [2]; [4]): 24
SpecSum (nSR100 [2]): 42
B3: Eif4a3 (protein, UniProt Q91VC3 1-411, looked up)
Eukaryotic initiation factor …: MAANATMATSGSARKRLLKEEDMTKVEFETSEEVDVTPTFDTMGLREDLLRGIYAYGFEKPSAIQQRAIKQIIKGRDVIAQSQSGTGKTATFSVSVLQCLDIQVRETQALILAPTRELAVQIQKGLLALGDYMNVQCHACIGGTNVGEDIRKLDYGQHVVAGTPGRVFDMIRRRSLRTRAIKMLVLDEADEMLNKGFKEQIYDVYRYLPPATQVVLISATLPHEILEMTNKFMTDPIRILVKRDELTLEGIKQFFVAVEREEWKFDTLCDLYDTLTITQAVIFCNTKRKVDWLTEKMREANFTVSSMHGDMPQKERESIMKEFRSGASRVLISTDVWARGLDVPQVSLIINYDLPNNRELYIHRIGRSGRYGRKGVAINFVKNDDIRILRDIEQYYSTQIDEMPMNVADLI
